The source of these data is patent publication US20070077617.

Data set [1] has as its target fusion protein PRA.
The target of data set [2] is fusion protein PRC.
Data set [3] addresses fusion protein PRD.
The target in data set [4] is fusion protein PRE.
Data set [5] concerns the target fusion protein PRF.
In data set [6] the target is fusion protein PRG.
In data set [7] the target is fusion protein PRH.
Data set [8] concerns the target fusion protein PRI.
Data set [9] deals with fusion protein PRK.
Data set [10] concerns the target fusion protein PRL.
The target in data set [11] is fusion protein PRM.
The target in data set [12] is fusion protein PRN.
Data set [13] addresses fusion protein PRP.
In data set [14] the target is fusion protein PRQ.
In data set [15] the target is fusion protein PRR.
For data set [16], the target named is fusion protein PRS.
The target of data set [17] is fusion protein PRT.
The target of data set [18] is fusion protein PRW.
The target of data set [19] is fusion protein PRY.
Data set [20] deals with human adrenocorticotropic hormone(1-24) fusion protein PAC.

Substitutions are numbered along the chain they refer to. In names and notes the source's numbering stands.

Sequence of fusion protein PRS (chain, as listed by the source): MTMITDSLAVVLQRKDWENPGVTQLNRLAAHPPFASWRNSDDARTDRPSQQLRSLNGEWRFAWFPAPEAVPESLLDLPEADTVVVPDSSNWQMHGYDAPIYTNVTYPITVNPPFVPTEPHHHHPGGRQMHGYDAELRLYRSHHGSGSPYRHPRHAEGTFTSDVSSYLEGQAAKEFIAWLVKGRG
Sequence of fusion protein PRN (chain, as listed by the source): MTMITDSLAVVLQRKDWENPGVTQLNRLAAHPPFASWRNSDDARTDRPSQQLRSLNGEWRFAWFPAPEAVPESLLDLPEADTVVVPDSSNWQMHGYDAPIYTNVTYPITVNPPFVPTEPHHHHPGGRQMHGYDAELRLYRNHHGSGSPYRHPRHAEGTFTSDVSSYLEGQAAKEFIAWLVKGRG
Sequence of fusion protein PRA (chain, as listed by the source): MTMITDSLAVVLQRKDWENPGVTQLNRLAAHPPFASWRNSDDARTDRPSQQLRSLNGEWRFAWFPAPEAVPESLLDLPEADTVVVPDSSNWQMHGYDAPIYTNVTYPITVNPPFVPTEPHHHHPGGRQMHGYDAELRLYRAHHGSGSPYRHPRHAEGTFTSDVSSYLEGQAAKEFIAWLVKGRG
Sequence of fusion protein PRW (chain, as listed by the source): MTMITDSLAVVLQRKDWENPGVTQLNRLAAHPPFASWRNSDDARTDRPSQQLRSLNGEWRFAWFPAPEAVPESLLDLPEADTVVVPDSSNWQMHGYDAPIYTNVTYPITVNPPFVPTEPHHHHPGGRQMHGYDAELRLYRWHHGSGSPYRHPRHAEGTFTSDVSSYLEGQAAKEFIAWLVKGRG
Sequence of fusion protein PRE (chain, as listed by the source): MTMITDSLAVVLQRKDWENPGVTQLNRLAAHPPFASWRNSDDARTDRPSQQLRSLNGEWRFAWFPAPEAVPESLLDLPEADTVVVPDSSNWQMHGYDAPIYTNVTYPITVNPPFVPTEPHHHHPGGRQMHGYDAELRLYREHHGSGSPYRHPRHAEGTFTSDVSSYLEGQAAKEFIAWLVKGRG
Sequence of fusion protein PRQ (chain, as listed by the source): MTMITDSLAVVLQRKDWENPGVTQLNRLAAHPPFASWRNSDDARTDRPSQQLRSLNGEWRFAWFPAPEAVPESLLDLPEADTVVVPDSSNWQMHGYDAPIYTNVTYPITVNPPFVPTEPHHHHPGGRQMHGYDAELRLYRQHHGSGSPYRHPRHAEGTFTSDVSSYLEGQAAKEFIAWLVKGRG
Sequence of fusion protein PRR (chain, as listed by the source): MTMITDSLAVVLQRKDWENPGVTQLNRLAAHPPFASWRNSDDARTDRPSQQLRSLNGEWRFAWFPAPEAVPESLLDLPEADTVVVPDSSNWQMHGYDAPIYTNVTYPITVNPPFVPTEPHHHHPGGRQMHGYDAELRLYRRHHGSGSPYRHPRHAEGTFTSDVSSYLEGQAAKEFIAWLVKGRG
Sequence of fusion protein PRK (chain, as listed by the source): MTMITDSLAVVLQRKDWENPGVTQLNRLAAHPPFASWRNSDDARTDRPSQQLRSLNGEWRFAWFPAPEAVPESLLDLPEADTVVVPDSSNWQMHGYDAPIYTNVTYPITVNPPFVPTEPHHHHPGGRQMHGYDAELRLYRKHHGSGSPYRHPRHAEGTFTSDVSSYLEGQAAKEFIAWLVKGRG
Sequence of fusion protein PRH (chain, as listed by the source): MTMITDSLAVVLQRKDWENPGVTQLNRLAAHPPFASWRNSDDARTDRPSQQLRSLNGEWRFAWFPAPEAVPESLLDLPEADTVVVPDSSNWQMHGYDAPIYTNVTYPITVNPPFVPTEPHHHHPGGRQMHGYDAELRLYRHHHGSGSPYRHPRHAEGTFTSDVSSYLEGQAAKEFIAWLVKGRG
Sequence of fusion protein PRI (chain, as listed by the source): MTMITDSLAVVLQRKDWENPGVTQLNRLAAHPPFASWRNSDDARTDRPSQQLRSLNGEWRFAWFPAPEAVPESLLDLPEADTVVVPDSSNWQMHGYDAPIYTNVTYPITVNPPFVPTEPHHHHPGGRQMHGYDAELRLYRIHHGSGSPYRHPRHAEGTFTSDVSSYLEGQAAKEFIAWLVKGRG
Sequence of fusion protein PRM (chain, as listed by the source): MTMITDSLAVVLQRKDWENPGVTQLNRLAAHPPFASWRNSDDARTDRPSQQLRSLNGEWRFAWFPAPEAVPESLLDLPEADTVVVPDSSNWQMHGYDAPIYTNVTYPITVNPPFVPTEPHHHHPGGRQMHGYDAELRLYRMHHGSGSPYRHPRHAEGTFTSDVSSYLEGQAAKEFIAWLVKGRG
Sequence of fusion protein PRY (chain, as listed by the source): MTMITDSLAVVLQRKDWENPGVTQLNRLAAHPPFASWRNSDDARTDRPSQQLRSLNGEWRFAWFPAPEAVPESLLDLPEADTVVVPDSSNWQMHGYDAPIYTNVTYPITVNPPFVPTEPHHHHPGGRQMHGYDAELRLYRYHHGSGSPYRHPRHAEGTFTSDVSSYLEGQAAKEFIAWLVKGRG
Sequence of fusion protein PRF (chain, as listed by the source): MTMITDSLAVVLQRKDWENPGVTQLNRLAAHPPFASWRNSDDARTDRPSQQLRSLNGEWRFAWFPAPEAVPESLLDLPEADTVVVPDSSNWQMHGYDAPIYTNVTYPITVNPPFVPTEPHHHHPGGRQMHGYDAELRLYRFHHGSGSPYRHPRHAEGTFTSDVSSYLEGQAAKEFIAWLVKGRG
Sequence of fusion protein PRT (chain, as listed by the source): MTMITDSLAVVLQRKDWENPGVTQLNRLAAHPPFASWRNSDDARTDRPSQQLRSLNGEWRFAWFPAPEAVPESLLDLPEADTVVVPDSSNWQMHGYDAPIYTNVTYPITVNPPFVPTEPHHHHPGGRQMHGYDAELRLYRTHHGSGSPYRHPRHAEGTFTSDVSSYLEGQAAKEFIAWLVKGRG
Sequence of human adrenocorticotropic hormone(1-24) fusion protein PAC (chain, as listed by the source): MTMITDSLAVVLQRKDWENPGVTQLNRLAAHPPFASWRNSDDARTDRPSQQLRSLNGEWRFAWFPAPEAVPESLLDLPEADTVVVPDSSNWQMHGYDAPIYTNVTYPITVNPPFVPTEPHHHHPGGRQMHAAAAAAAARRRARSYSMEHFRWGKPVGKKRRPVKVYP
Sequence of fusion protein PRL (chain, as listed by the source): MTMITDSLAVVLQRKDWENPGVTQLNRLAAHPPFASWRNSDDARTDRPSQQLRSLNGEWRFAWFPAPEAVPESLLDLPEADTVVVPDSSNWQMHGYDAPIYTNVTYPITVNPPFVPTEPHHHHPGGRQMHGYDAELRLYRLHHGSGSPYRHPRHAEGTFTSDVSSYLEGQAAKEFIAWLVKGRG
Sequence of fusion protein PRG (chain, as listed by the source): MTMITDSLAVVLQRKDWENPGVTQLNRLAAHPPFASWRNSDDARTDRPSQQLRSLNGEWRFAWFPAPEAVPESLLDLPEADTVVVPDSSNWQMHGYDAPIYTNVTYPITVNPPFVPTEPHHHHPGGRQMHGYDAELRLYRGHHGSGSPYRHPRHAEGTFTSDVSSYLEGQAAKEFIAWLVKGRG
Sequence of fusion protein PRD (chain, as listed by the source): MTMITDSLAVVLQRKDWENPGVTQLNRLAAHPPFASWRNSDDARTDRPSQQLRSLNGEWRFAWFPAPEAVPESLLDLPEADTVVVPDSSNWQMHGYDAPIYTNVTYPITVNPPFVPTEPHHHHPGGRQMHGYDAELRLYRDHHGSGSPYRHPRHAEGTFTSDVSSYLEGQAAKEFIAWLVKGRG
Sequence of fusion protein PRC (chain, as listed by the source): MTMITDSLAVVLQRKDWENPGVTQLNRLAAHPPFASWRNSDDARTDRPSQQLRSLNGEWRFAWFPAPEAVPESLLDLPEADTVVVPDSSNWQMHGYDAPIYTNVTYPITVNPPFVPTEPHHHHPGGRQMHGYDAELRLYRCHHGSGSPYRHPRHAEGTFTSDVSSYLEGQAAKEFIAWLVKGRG

B1: OmpT protease variant OmpT D97L (protein)
chain: STETLSFTPDNINADISLGTLSGKTKERVYLAEEGGRKVSQLDWKFNNAAIIKGAINWDLMPQISIGAAGWTTLGSRGGNMVDQDWMDSSNPGTWTLESRHPDTQLNYANEFDLNIKGWLLNEPNYRLGLMAGYQESRYSFTARGGSYIYSSEEGFRDDIGSFPNGERAIGYKQRFKMPYIGLTGSYRYEDFELGGTFKYSGWVESSDNDEHYDPGKRITYRSKVKDQNYYSVAVNAGYYVTPNAKVYVEGAWNRVTNKKGNTSLYDHNNNTSDYSKNGAGIENYNFITTAGLKYTF
On to B1, for which the relative cleavage efficiency is 7.1% in [1]; 3.9% in data set [2]; “less than 3%” in data set [3]; “less than 3%” in data set [4]; 4.7% in data set [5]; “less than 3%” in data set [6]. Moreover, the relative cleavage efficiency entry was “less than 3%” in [7]; less than 3% in data set [8]; less than 3% in data set [9]; “less than 3%” in data set [10]; less than 3% in data set [11]; less than 3% in data set [12]. For the same protein, the relative cleavage efficiency entry in data set [13] is “less than 3%”; in [14] it was “less than 3%”; in data set [15] it was less than 3%; in [16] it was 9.1%; in data set [17] it was less than 3%; in data set [18], “less than 3%”. For the same protein, the relative cleavage efficiency in [19] is 3.2%. In data set [20], the by-products result is listed as “No by-products were released by cleavage at other sites”. In addition, the “release of human adrenocorticotropic hormone(1-24), against wild-type OmpT protease” value in data set [20] was “released human adrenocorticotropic hormone(1-24) at 2.9 times compared to wild-type OmpT protease”.

B2: OmpT protease variant OmpT D97R (protein)
chain: B1 chain with L97R
On to B2, for which the relative cleavage efficiency entry in data set [1], in data set [2], in data set [3], in [4], in data set [5] and in data set [6] was “less than 3.0%” each time. Besides, the relative cleavage efficiency entry in data set [7], in [8], in data set [9], in data set [10], in data set [11] and in data set [12] was “less than 3.0%” in each case. For the same protein, the relative cleavage efficiency result in data set [13], in [14], in data set [15], in [16], in data set [17] and in data set [18] was “less than 3.0%” each time. Also, the relative cleavage efficiency result in data set [19] is reported as “less than 3.0%”.
